Measurements published in patent publication US20180022819A1, “COMPOSITIONS AND METHODS FOR COMBINATION THERAPY WITH PROSTATE-SPECIFIC MEMBRANE ANTIGEN BINDING PROTEINS” (APTEVO RESEARCH AND DEVELOPMENT LLC, priority 2015, published 2018).

B1: TSC249: anti-PSMA bispecific molecule targeting PSMA and CD3; protein sequence of SEQ ID NO: 78 (protein)
chain: DIQMTQSPSAMSASVGDRVTITCRASKSISKYLAWFQQKPGKVPKLRIHSGSTLQSGVPSRFSGSGSGTEFTLTISSLQPEDFATYYCQQHIEYPWTFGQGTKVEIKRGGGGSGGGGSGGGGSQVQLVQSGAEVKKPGASVKVSCKASGYTFTDYYMHWVRQAPGQGLEWMGYFNPYNDYTRYAQKFQGRVTMTRDTSISTAYMELSSLRSDDTAVYYCARSDGYYDAMDYWGQGTTVTVSSSEPKSSDKTHTCPPCPAPEAAGAPSVFLFPPKPKDTLMISRTPEVTCVVVDVSHEDPEVKFNWYVDGVEVHNAKTKPREEQYNSTYRVVSVLTVLHQDWLNGKAYACAVSNKALPAPIEKTISKAKGQPREPQVYTLPPSRDELTKNQVSLTCLVKGFYPSDIAVEWESNGQPENNYKTTPPVLDSDGSFFLYSKLTVDKSRWQQGNVFSCSVMHEALHNHYTQKSLSLSPGQRHNNSSLNTGTQMAGHSPNSQVQLVESGGGVVQPGRSLRLSCKASGYTFTRSTMHWVRQAPGQGLEWIGYINPSSAYTNYNQKFKDRFTISADKSKSTAFLQMDSLRPEDTGVYFCARPQVHYDYNGFPYWGQGTPVTVSSGGGGSGGGGSGGGGSAQDIQMTQSPSSLSASVGDRVTMTCSASSSVSYMNWYQQKPGKAPKRWIYDSSKLASGVPARFSGSGSGTDYTLTISSLQPEDFATYYCQQWSRNPPTFGGGTKLQITSSS
modifications: Humanized TSC249 Scorpion (huVL-VH#2 107-1A4 scFv-Fc-DRA222 scFv)
B2: FITC-107-1A4: FITC-labeled anti-PSMA monoclonal antibody 107-1A4 (Acris) (antibody, V domains shown)
VH: EIQLQQSGPELVKPGASVKMSCKASGYTFTDYYMHWVKQNNGESLEWIGYFNPYNDYTRYNQNFNGKATLTVDKSSSTAYMQLNSLTSEDSAFYYCARSDGYYDAMDYWGQGTSVTVSS
VL: DVQITQSPSYLAASPGETITINCRASKSISKYLAWYQEKPGKANKLLIHSGSTLQSGIPSRFSGSGSGTDFTLTISSLEPEDFAMYYCQQHIEYPWTFGGGTKLEIKRA

Columns and labels:
[1] = system: 22Rv1 cells; assay: Chromium-51 release assay of redirected T-cell cytotoxicity against 22Rv1 cells (Example 5); format: cell-based, human; details: enzalutamide-treated 22Rv1 cells relative to untreated 22Rv1 cells
Procedure: FIG. 3 (top panel) is a graph showing the results of a chromium-51 release assay measuring the effectiveness of the anti-PSMA bispecific molecule TSC249 at inducing redirected T-cell cytotoxicity in 4 hours against enzalutamide-treated and untreated prostate cancer 22Rv1 cells. Percent specific lysis relative to a total lysis control is shown on the y-axis. Concentration (pM) of the anti-PSMA bispecific molecule TSC249 is shown on the x-axis.
To compare the sensitivity of enzalutamide-treated and untreated 22Rv1 prostate cancer cells to target-dependent T-cell cytotoxicity, a bispecific binding molecule targeting PSMA and CD3 was tested in a chromium (^51Cr) release assay using donor T-cells as effector cells. [See, e.g., US 2014/0161800 A1, which describes multispecific binding molecules that bind to prostate-specific membrane antigen (PSMA) and CD3.]
Cytotoxicity was assessed by a ^51Cr release assay. […]
Plates were incubated for 4 hours, spun at 225×g for 3 minutes, and 25 μL of supernatant was transferred from each well to the corresponding well of a 96-well LUMAPLATE® sample plate (Perkin Elmer). Sample plates were allowed to air dry in a chemical safety hood for 18 hours, and then radioactivity was read on a Topcount scintillation counter using a standard protocol. […]

[2] = system: LNCaP cells; assay: Effect of enzalutamide on redirected T-cell cytotoxicity in LNCaP cells expressing GFP (Example 1); format: cell-based, human; design: reduction of live target cells: dose or concentration left out as unconfirmed; details: TSC249 titration with T-cells and […] nM enzalutamide, compared to TSC249 and T-cells alone
Procedure: A titration of the anti-PSMA bispecific molecule TSC249 (protein sequence of SEQ ID NO: 78 in Table 3) was added to all sets of LNCaP cells in the amounts shown on the x-axis. T-cells and DMSO were added to the first set of LNCaP cells (leftmost set of bars). […] No T-cells and DMSO were added to the third set of LNCaP cells (set of bars second from the right). […] LNCaP cell growth (number of live cells) was measured by overall fluorescence and expressed as a fraction of live cells relative to the cells untreated with TSC249 on the y-axis.
LNCaP cells expressing GFP were cultured with donor T-cells at a 3:1 ratio of T-cells to LNCaP target cells for 4 days. […] DMSO alone was added to other samples. A titration of the anti-PSMA bispecific molecule TSC249 (protein sequence of SEQ ID NO: 78 in Table 3) was added to the cell cultures. LNCaP cell growth (number of live cells) was monitored by overall fluorescence.

[3] = system: LNCaP cells; assay: Growth inhibition of LNCaP-GFP cells with primary human T-cells, 4 days, with combination index analysis (Example 6); format: cell-based
Procedure: Additional procedures are described in Example 6. Percentage of live cells relative to an untreated control is shown on the y-axis.
Combination indices can indicate additive effects (CI=1), synergism (CI<1), or antagonism (CI>1).
Overall fluorescent signal from GFP enabled the quantitation of living LNCaP target cells in isolation from T-cells. […] TSC249 was added to have final concentrations of 125, 62.5, 31.25, 15.6, 7.8, 3.9, or 1.95 pM, or none. T-cells from several donors were used in replicate experiments, added at a ratio of 45,000 T-cells to 15,000 LNCaP cells per well.
After 4 days culture at 37° C. in 5% CO2, media was aspirated from wells and […] of 0.4% NP-40 was added to each well. Fluorescent signal from GFP in LNCaP cells adherent in wells was detected by a Spectramax plate reader, reading from the bottom of the wells. […]
The combination index theorem developed by Chou and Talalay was used to determine the interaction between the two compounds in their anti-cancer activity (see Chou, Cancer Res. 2010 Jan. 15; 70(2):440-6; Chou, Pharmacol Rev. 2006 September; 58(3):621-81). For each plate, relative fluorescence units (RFU) of all wells were normalized to the RFU of the well containing cells only, i.e., the proportion of living LNCaP cells in each well was expressed in relation to untreated LNCaP cells. […] Mean values were calculated from three replicates. […]

[4] = system: PSMA; assay: Binding of FITC-labeled 107-1A4 to 22Rv1 cells by flow cytometry (Example 4); design: species or system human; details: 22Rv1 cells that were or were not incubated with enzalutamide
Excerpt: Mean fluorescence intensity (MFI) of bound molecules on live cells is shown on the y-axis. Concentration (nM) of the anti-PSMA monoclonal antibody 107-1A4 labeled with FITC is shown on the x-axis.
22Rv1 cells (PSMA+ at low level) were obtained from ATCC (Manassas, Va.) and cultured according to the ATCC protocol in RPMI-1640 media plus 10% FBS. […] All four cultures were harvested, stained for PSMA with FITC-labeled anti-PSMA monoclonal antibody 107-1A4 (Acris), and PSMA expression assayed by standard flow cytometry procedures. 22Rv1 cells were harvested with trypsin, and placed into FACS buffer (PBS+0.5% BSA [Equitech]+2 mM EDTA [Life Technologies]) at 1×10e6 per ml. FITC-107-1A4 was prepared at 36 nM in FACS buffer, and serially diluted 1:3, before adding 50 μl to 2×10e5 22Rv1 cells which had been pelleted in a 96 well plate. After 30 minute incubation on ice, cells were washed 3 times in FACS buffer, resuspended in FACS buffer, and data acquired on a BD LSRII flow cytometer. The sample files were analyzed using FlowJo software; the median fluorescence intensity (MFI) of the live population of 22Rv1 cells in each well was calculated after gating on live cells (forward vs side scatter). Median fluorescence intensities were fit to a 4-parameter logistic curve and graphed as concentration vs. MFI using GraphPad PRISM® software.

| Molecule | specific lysis from T-cell directed cytotoxicity [1] | reduction of live target cells [2] | interaction by combination index (Chou and Talalay) ([3]; 1.95-31.25 pM TSC249 at all enzalutamide concentrations used (39, 156, 625 nM)) | live cell signal when combined with the other drug ([3]; enzalutamide plus TSC249 over a wide range of concentrations, T-cells, 4 days) | ECso values determined from binding curves [4] |
| --- | --- | --- | --- | --- | --- |
| B1 | increase in specific lysis | higher dose-dependent reduction of live target cells | Synergy | further decrease in live cell signal | – |
| B2 | – | – | – | – | no significant differences |
